# According to publication PMC6322740, “Structural characterization of a pathogenicity-related superoxide dismutase codified by a probably essential gene in Xanthomonas citri subsp. citri” (PLoS ONE, 2019):
# Target: the molecule itself
# Test: SEC; Superdex 200 10/300, 50 mM Tris-HCl pH 8.0, 150 mM NaCl; tag removed with thrombin; oligomeric state estimated from the molecular mass
protein,measurement,value
"XcSOD, manganese containing superoxide dismutase from Xanthomonas citri subsp. citri (enzyme, Cloned in pET28a; His-tag removed with thrombin before size exclusion chromatography and crystallization; also called MnSOD; product of the sodM gene (XAC2386); source: E. coli BL21 (DE3), purified (Ni-NTA, thrombin, size exclusion chromatography); not shown: His-tag, N-terminal, cleaved) MAYTLPQLPYAYDALEPNIDAQTMEIHHTKHHQTYINNVNAALEGTEYADLPIEELVSKLKSLPENLQGPVRNNGGGHANHSLFWTVLSPNGGGEPKGEVAKAIDKDLGGFEKFKEAFTKAAVSRFGSGWAWLSVTPDKKLVVESTANQDSPLFEGNTPILGLDVWEHAYYLKYQNRRPEYIGAFYNAVNWEEVERRYHAAIA",stoichiometry N,2
